Test results taken from IntAct's records for PubMed 24525234.

B1: Rho guanine nucleotide exchange factor 2 (Mus musculus), Q60875 (parent)
chain: MSRIESLTRARIDRSKEQATKTREKEKMKEAKDARYTNGHLFTTISVSGMTMCYACNKSITAKEALICPTCNVTIHNRCKDTLANCTKVKQKQQKAALLRNNTALQSVSLRSKTTTRERPTSAIYPSDSFRQSLLGSRRGLSSLSLAKSVSTTNIAGHFNDESPLGLRQILSQSTDSLNMRNRTLSVESLIDEGVEVFYNELMSDFEMDEKDFEADSWSLAVDSSFLQQHKKEVMKKQDVIYELIQTELHHVRTLKIMTRLFRTGMLEELQMEPEVVQGLFPCVDELSDIHTRFLNQLLERRRQALCPGSTRNFVIHRLGDLLISQFSGSNAEQMRKTYSEFCSRHTKALKLYKELYARDKRFQQFIRKMTRSAVLKRHGVQECILLVTQRITKYPVLINRILQNSHGVEEEYQDLASALGLVKELLSNVDQDVHELEKEARLQEIYNRMDPRAQTPVPGKGPFGRDELLRRKLIHEGCLLWKTATGRFKDVLLLLMTDVLVFLQEKDQKYIFTSLDKPSVVSLQNLIVRDIANQAKGMFLISSGPPEMYEVHAASRDDRTTWIRVIQQSVRLCPSREDFPLIETEDKAYLRRIKTKLQQKNQALVELLQKNVELFAEMVHFQALKAGFVGMPPPALPRGLFRLESFESLRGERLLKDALREVEGLKDLLLGPCVDLPMTSREPALPLDSDSGSCPGVTANGEARTFNGSIELCRADSDSSQKDRNGNQLRSPQEEVLQPLINLYGLLHGLQAVVVQQERLMEALFPEGPERWEKLSRANSRDGEAGRAAVASVTPEKQATELALLQRQHTLLQEELRRCQRLGEERATEAGSLEARLRESEQARALLEREAEEIRRQLAALGQNEPLPAEAPWARRPLDPRRRSLPAGDALYLSFNPPQPSRGHDRLDLPVTVRSLHRPFDDREAQELGSPEDRLQDSSDPDTGSEEEVSSRLSPPHSPRDFTRMQDIPEETESRDGEPTASES

Variants of: B1
Conditions: with rhoa_human RHOA

effect of a mutation on the interaction	Variant
disrupting interaction	E243K
